This data set concerns the molecule itself. Description: cryo-EM structure; purified virions, ~1 mg/mL, in 30 mM HEPES pH 7.4, 100 mM NaCl; nothing, CaCl2 or 10 mM GCDCA added (V339I), nothing added (D348E); icosahedral reconstruction of the capsid.

Substitutions are numbered along the chain they refer to. In names and notes the source's numbering stands.

B1: Murine norovirus MNV-1 capsid protein VP1, V339I escape mutant (in purified virions) (natural protein, murine norovirus (MNV-1, genotype GV.1), UniProt Q80J94 1-541, looked up)
chain: MRMSDGAAPKANGSEASGQDLVPAAVEQAVPIQPVAGAALAAPAAGQINQIDPWIFQNFVQCPLGEFSISPRNTPGEILFDLALGPGLNPYLAHLSAMYTGWVGNMEVQLVLAGNAFTAGKVVVALVPPYFPKGSLTTAQITCFPHVMCDVRTLEPIQLPLLDVRRVLWHATQDQEESMRLVCMLYTPLRTNSPGDESFVVSGRLLSKPAADFNFVYLTPPIERTIYRMVDLPVIQPRLCTHARWPAPVYGLLVDPSLPSNPQWQNGRVHVDGTLLGTTPISGSWVSCFAAEAAYKFQSGTGEVATFTLIEQDGSAYVPGDRAAPLGYPDFSGQLEIEIQTETTKTGDKLKVTTFEMILGPTTNADQAPYQGRVFASVTAAASLDLVDGRVRAVPRSIYGFQDTIPEYNDGLLVPLAPPIGPFLPGEVLLRFRTYMRQIDTADAAAEAIDCALPQEFVSWFASNAFTVQSEALLLRYRNTLTGQLLFECKLYNEGYIALSYSGSGPLTFPTDGIFEVVSWVPRLYQLASVGSLATGRMLKQ
notes: Capsid protein VP1 (~58 kDa; N-terminal, shell and protruding domains) of murine norovirus MNV-1, as it stands in the purified virion, with the escape mutation V339I on the C'D' loop; also called V339I mutant virus; apo V339I; source: BV-2 cells infected with the MNV-1 mutant; virions purified (PEG precipitation, ultracentrifugation, sucrose gradient); copies: 180
Turning to B1, the binding result was “binds”.

B2: Murine norovirus MNV-1 capsid protein VP1, D348E escape mutant (in purified virions) (natural protein, murine norovirus (MNV-1, genotype GV.1), UniProt Q80J94 1-541, looked up)
chain: B1 chain with I339V, D348E
notes: Capsid protein VP1 (~58 kDa; N-terminal, shell and protruding domains) of murine norovirus MNV-1, as it stands in the purified virion, with the escape mutation D348E on the C'D' loop; also called D348E virus; apo D348E; source: BV-2 cells infected with the MNV-1 mutant; virions purified (PEG precipitation, ultracentrifugation, sucrose gradient); copies: 180
B2: the binding result is on record as “binds”.

The values above are taken from PMC12172446, “Murine norovirus allosteric escape mutants mimic gut activation” (Journal of Virology, 2025).
